Article PMC11559006, “Rab6a enables BICD2/dynein-mediated trafficking of human papillomavirus from the trans-Golgi network during virus entry” (mBio, 2024)
Ends that are not written are not given here.

Target: T1, HA-tagged constitutively active (CA) Rab6a mutant (Q72L) (UniProt P20340 2-208, Q72L)
T1 construct: Rab6a, amplified from EGFP-Rab6AQ72L (Addgene #49483); the forward primer puts ATG and the HA tag before the codons S-T-G-G (residue 2 onward), the reverse primer ends at the stop codon after ...GGCSC; The vector is called pCMV-FLAG; also called HA-tagged CA Rab6a; GTP-Rab6a; source: HEK293TT, transfected, purified (anti-HA agarose, eluted with HA peptide); not shown: HA, N-terminal, kept
Assay: pull-down; 5 µg biotinylated peptide incubated with purified protein (~20 nM FLAG-BICD2 or HA-tagged CA or DN Rab6a) in HN buffer (50 mM HEPES, 150 mM NaCl) with 0.1% Triton, 1 mM DTT, 2 h at 4°C; streptavidin magnetic beads; western blot for HA or FLAG
Details: both partners purified

B1: biotinylated HPV16 L2 peptide, amino acids 434–461 (peptide)
peptide: SPQYTIIADAGDFYLHPSYYMLRKRRKR
modifications: also: further groups not given here
notes: HPV16 minor capsid protein L2, amino acids 434-461 of full-length HPV16 L2; also called L2 C; peptide 434–461; source: synthetic peptide, bought: GenScript or Promega
binding result: binds
